We go through 2 molecules from publication PMC5723433, “Identification and characterization of a novel zebrafish (Danio rerio) pentraxin–carbonic anhydrase” (PeerJ, 2017).

As a reminder, the stoichiometry N is the number of molecules, sites or subunits per partner or assembly.

Data set [1] deals with zebrafish (Danio rerio) carbonic anhydrase VI-pentraxin (CA VI–PTX), recombinant (zebrafish (Danio rerio)). The data set is described as follows: SEC + other: static and dynamic light scattering (LC-SLS-DLS); 50 ug protein injected on Superdex 200 5/150 in 50 mM NaH3PO4, 500 mM NaCl pH 8, 0.1 ml/min, 20 °C; MW from standard proteins (SEC) and from light-scattering intensity calibrated on monomeric BSA (SLS); Rh from DLS.

Data set [2] concerns the molecule itself. The data set is described as follows: not stated; unpublished data, preliminary result; protein in solution.

Take “zebrafish (Danio rerio) carbonic anhydrase VI-pentraxin (CA VI–PTX), recombinant (enzyme)”: the stoichiometry N in data set [1] turned out to be 5.

B1: human carbonic anhydrase VI (CA VI) (enzyme, UniProt P23280-1 18-308, looked up)
chain: QHVSDWTYSEGALDEAHWPQHYPACGGQRQSPINLQRTKVRYNPSLKGLNMTGYETQAGEFPMVNNGHTVQISLPSTMRMTVADGTVYIAQQMHFHWGGASSEISGSEHTVDGIRHVIEIHIVHYNSKYKSYDIAQDAPDGLAVLAAFVEVKNYPENTYYSNFISHLANIKYPGQRTTLTGLDVQDMLPRNLQHYYTYHGSLTTPPCTENVHWFVLADFVKLSRTQVWKLENSLLDHRNKTIHNDYRRTQPLNHRVVESNFPNQEYTLGSEFQFYLHKIEEILDYLRRALN
notes: carbonic anhydrase VI, human; Only an unpublished preliminary result is told (A. Yrjänäinen, 2017); also called human CA VI; gustin
As for B1, in data set [2], the “stoichiometry N” value was found to be 2.
